Data as given in the supplement of paper PMC9112550, “Optimization of the antimicrobial peptide Bac7 by deep mutational scanning” (BMC Biology, 2022).

Test system: Escherichia coli TOP10
Assay: shrunken log2 fold change of peptide-encoding DNA abundance (4.5 h post-induction vs induction); higher = less antimicrobial activity (less host growth inhibition)
Details: time post-induction: 4.5 h; library: site-saturation at positions 5, 18, 19, 20
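Further: peptides expressed intracellularly from a pBAD plasmid library in pooled LB shake-flask culture, induced with 0.3% L-arabinose, DNA abundance read by NGS, three biological replicates, DESeq2 with apeglm shrinkage.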

Row | Sequence | shrunken log2 fold change
1 | RRIRNRPPRLPRPRPRPPLKPRP | 0.0326
2 | RRIRQRPPRLPRPRPRPTLPPRP | 1.69
3 | RRIRYRPPRLPRPRPRPHDGPRP | 0.015
4 | RRIRGRPPRLPRPRPRPRKSPRP | 0.326
5 | RRIRDRPPRLPRPRPRPGSNPRP | -0.153
6 | RRIRFRPPRLPRPRPRPEILPRP | -0.0488
7 | RRIRYRPPRLPRPRPRPRMNPRP | 0.0193
8 | RRIRLRPPRLPRPRPRPANLPRP | -0.00914
9 | RRIRRRPPRLPRPRPRPRSRPRP | 0.345
10 | RRIRKRPPRLPRPRPRPSAHPRP | 0.164
11 | RRIRWRPPRLPRPRPRPHWTPRP | -0.158
12 | RRIRRRPPRLPRPRPRPFPDPRP | 0.255
13 | RRIRARPPRLPRPRPRPIDTPRP | 0.0213
14 | RRIRWRPPRLPRPRPRPWCTPRP | 0.118
15 | RRIRSRPPRLPRPRPRPCESPRP | -0.0178
16 | RRIRERPPRLPRPRPRPYQNPRP | -0.0789
17 | RRIRHRPPRLPRPRPRPVCLPRP | -0.0609
18 | RRIRERPPRLPRPRPRPQTGPRP | -0.0945
19 | RRIRHRPPRLPRPRPRPLNKPRP | -0.677
20 | RRIRRRPPRLPRPRPRPQLTPRP | 0.122
21 | RRIRMRPPRLPRPRPRPAIKPRP | -0.183
22 | RRIRPRPPRLPRPRPRPDHIPRP | -0.0312
23 | RRIRYRPPRLPRPRPRPWDRPRP | -0.103
24 | RRIRTRPPRLPRPRPRPNEYPRP | -0.22
25 | RRIRTRPPRLPRPRPRPCVDPRP | 0.0267

Row | Sequence | shrunken log2 fold change
26 | RRIRTRPPRLPRPRPRPQPWPRP | 0.314
27 | RRIRIRPPRLPRPRPRPGHKPRP | -0.363
28 | RRIRIRPPRLPRPRPRPSYKPRP | -1.42
29 | RRIRTRPPRLPRPRPRPDEFPRP | -0.00523
30 | RRIRGRPPRLPRPRPRPYIDPRP | 0.093
31 | RRIRDRPPRLPRPRPRPYAQPRP | -0.156
32 | RRIRVRPPRLPRPRPRPDYPPRP | -0.177
33 | RRIRSRPPRLPRPRPRPCCCPRP | -0.000964
34 | RRIRWRPPRLPRPRPRPTFAPRP | 0.327
35 | RRIRFRPPRLPRPRPRPEMMPRP | 0.00382
36 | RRIRNRPPRLPRPRPRPKCIPRP | -0.223
37 | RRIRIRPPRLPRPRPRPHNHPRP | -0.93
38 | RRIRHRPPRLPRPRPRPCRYPRP | -0.0657
39 | RRIRHRPPRLPRPRPRPTIQPRP | -0.169
40 | RRIRKRPPRLPRPRPRPWVDPRP | 0.572
41 | RRIRQRPPRLPRPRPRPTLMPRP | 0.369
42 | RRIRTRPPRLPRPRPRPNNGPRP | -0.602
43 | RRIRWRPPRLPRPRPRPMHIPRP | 0.0409
44 | RRIRCRPPRLPRPRPRPDRQPRP | 0.00868
45 | RRIRKRPPRLPRPRPRPHMFPRP | -0.469
46 | RRIRDRPPRLPRPRPRPNALPRP | -0.0157
47 | RRIRARPPRLPRPRPRPANCPRP | 0.186
48 | RRIRERPPRLPRPRPRPQEWPRP | -0.021
49 | RRIRERPPRLPRPRPRPSSDPRP | -0.164
50 | RRIRPRPPRLPRPRPRPLYQPRP | -0.0164

Row | Sequence | shrunken log2 fold change
51 | RRIRTRPPRLPRPRPRPNCYPRP | -0.836
52 | RRIRARPPRLPRPRPRPDCNPRP | 0.606
53 | RRIRLRPPRLPRPRPRPWCMPRP | -0.408
54 | RRIRDRPPRLPRPRPRPNLKPRP | 0.114
55 | RRIRFRPPRLPRPRPRPPSLPRP | -0.112
56 | RRIRIRPPRLPRPRPRPVQRPRP | -0.039
57 | RRIRMRPPRLPRPRPRPGYPPRP | 0.0749
58 | RRIRVRPPRLPRPRPRPYEKPRP | -0.293
59 | RRIRHRPPRLPRPRPRPTQNPRP | 0.666
60 | RRIRGRPPRLPRPRPRPHTPPRP | 0.339
61 | RRIRARPPRLPRPRPRPPSAPRP | 0.827
62 | RRIRERPPRLPRPRPRPWCPPRP | -0.758
63 | RRIRVRPPRLPRPRPRPISLPRP | -0.0572
64 | RRIRFRPPRLPRPRPRPMMNPRP | -0.77
65 | RRIRCRPPRLPRPRPRPGVMPRP | 0.0691
66 | RRIRCRPPRLPRPRPRPWRSPRP | -0.0803
67 | RRIRGRPPRLPRPRPRPRSLPRP | 0.778
68 | RRIRCRPPRLPRPRPRPMENPRP | 0.0267
69 | RRIRLRPPRLPRPRPRPTRAPRP | 0.498
70 | RRIRFRPPRLPRPRPRPFNEPRP | -0.322
71 | RRIRVRPPRLPRPRPRPFDAPRP | 0.0132
72 | RRIRYRPPRLPRPRPRPHGNPRP | -0.573
73 | RRIRTRPPRLPRPRPRPCWWPRP | 0.636
74 | RRIRPRPPRLPRPRPRPTYTPRP | -0.272
75 | RRIRNRPPRLPRPRPRPCMCPRP | 0.0188

Row | Sequence | shrunken log2 fold change
76 | RRIRTRPPRLPRPRPRPELEPRP | 0.0188
77 | RRIRSRPPRLPRPRPRPYYPPRP | -2.8
78 | RRIRPRPPRLPRPRPRPRTPPRP | 0.536
79 | RRIRCRPPRLPRPRPRPRNTPRP | 0.855
80 | RRIRIRPPRLPRPRPRPAPCPRP | -0.0838
81 | RRIRQRPPRLPRPRPRPLMQPRP | 0.0776
82 | RRIRNRPPRLPRPRPRPQGIPRP | -0.216
83 | RRIRKRPPRLPRPRPRPDHFPRP | 0.0027
84 | RRIRHRPPRLPRPRPRPTSAPRP | 0.0939
85 | RRIRHRPPRLPRPRPRPVNMPRP | -0.00401
86 | RRIRYRPPRLPRPRPRPTPDPRP | -0.145
87 | RRIRGRPPRLPRPRPRPIFNPRP | 0.051
88 | RRIRWRPPRLPRPRPRPANKPRP | -0.348
89 | RRIRFRPPRLPRPRPRPVYHPRP | -1.19
90 | RRIRKRPPRLPRPRPRPCDEPRP | 0.121
91 | RRIRNRPPRLPRPRPRPEMYPRP | -0.0311
92 | RRIRHRPPRLPRPRPRPHNGPRP | -0.362
93 | RRIRSRPPRLPRPRPRPGIMPRP | -0.334
94 | RRIRHRPPRLPRPRPRPIHTPRP | 0.00096
95 | RRIRWRPPRLPRPRPRPLEYPRP | -0.152
96 | RRIRRRPPRLPRPRPRPLPGPRP | 0.59
97 | RRIRRRPPRLPRPRPRPSMTPRP | 0.315
98 | RRIRSRPPRLPRPRPRPSDSPRP | -0.612
99 | RRIRQRPPRLPRPRPRPFWYPRP | -0.171
100 | RRIRHRPPRLPRPRPRPEPGPRP | -0.044

Row | Sequence | shrunken log2 fold change
101 | RRIRCRPPRLPRPRPRPHCQPRP | 0.0911
102 | RRIRNRPPRLPRPRPRPGMKPRP | -0.272
103 | RRIRGRPPRLPRPRPRPVPTPRP | 0.865
104 | RRIRWRPPRLPRPRPRPMGAPRP | 0.501
105 | RRIRWRPPRLPRPRPRPMLNPRP | -0.00515
106 | RRIRTRPPRLPRPRPRPKIFPRP | -0.219
107 | RRIRNRPPRLPRPRPRPQFCPRP | -0.0424
108 | RRIRHRPPRLPRPRPRPQYYPRP | -1.76
109 | RRIRRRPPRLPRPRPRPEHEPRP | 0.0952
110 | RRIRGRPPRLPRPRPRPKPWPRP | 0.914
111 | RRIRARPPRLPRPRPRPYSHPRP | -0.171
112 | RRIRNRPPRLPRPRPRPCLPPRP | -0.217
113 | RRIRDRPPRLPRPRPRPGANPRP | 0.19
114 | RRIRKRPPRLPRPRPRPRYWPRP | 0.173
115 | RRIRMRPPRLPRPRPRPDLPPRP | -0.0325
116 | RRIRKRPPRLPRPRPRPWCDPRP | -0.377
117 | RRIRIRPPRLPRPRPRPHWCPRP | 0.164
118 | RRIRIRPPRLPRPRPRPRIQPRP | -0.275
119 | RRIRDRPPRLPRPRPRPSPYPRP | -1.07
120 | RRIRRRPPRLPRPRPRPVQIPRP | 0.14
121 | RRIRKRPPRLPRPRPRPAWKPRP | -0.116
122 | RRIRFRPPRLPRPRPRPHGFPRP | -0.105
123 | RRIRQRPPRLPRPRPRPMEFPRP | 0.0663
124 | RRIRMRPPRLPRPRPRPITQPRP | -0.00846
125 | RRIRVRPPRLPRPRPRPCPAPRP | -0.121

Row | Sequence | shrunken log2 fold change
126 | RRIRARPPRLPRPRPRPTIKPRP | 0.0966
127 | RRIRQRPPRLPRPRPRPKAPPRP | 0.653
128 | RRIRFRPPRLPRPRPRPNWLPRP | -0.0999
129 | RRIRHRPPRLPRPRPRPTMFPRP | -0.0195
130 | RRIRIRPPRLPRPRPRPCQGPRP | -0.0156
131 | RRIRNRPPRLPRPRPRPPYDPRP | -0.561
132 | RRIRQRPPRLPRPRPRPVGYPRP | 0.101
133 | RRIRGRPPRLPRPRPRPPFAPRP | 1.91
134 | RRIRRRPPRLPRPRPRPYKSPRP | -0.239
135 | RRIRIRPPRLPRPRPRPTFRPRP | -0.261
136 | RRIRHRPPRLPRPRPRPYWGPRP | -0.0562
137 | RRIRERPPRLPRPRPRPNKEPRP | -0.0147
138 | RRIRMRPPRLPRPRPRPKWKPRP | 0.195
139 | RRIRWRPPRLPRPRPRPPGGPRP | 0.669
140 | RRIRGRPPRLPRPRPRPRKNPRP | 0.74
141 | RRIRIRPPRLPRPRPRPRCQPRP | 0.00087
142 | RRIRSRPPRLPRPRPRPSCCPRP | -0.102
143 | RRIRNRPPRLPRPRPRPKKQPRP | -0.0788
144 | RRIRSRPPRLPRPRPRPTSQPRP | 0.0259
145 | RRIRARPPRLPRPRPRPQNSPRP | -0.23
146 | RRIRTRPPRLPRPRPRPSSAPRP | -0.172
147 | RRIRMRPPRLPRPRPRPEDKPRP | 2.94
148 | RRIRVRPPRLPRPRPRPNYMPRP | -0.923
149 | RRIRHRPPRLPRPRPRPSDCPRP | -0.126
150 | RRIRCRPPRLPRPRPRPWHFPRP | -0.422
